Results on one substance are retold here after patent US10450368.

Assay [1] deals with HIV-1 CH505 transmitted/founder gp120 Env (HIV-1). Nature of the assay: competition ELISA, blocking of CH235 binding to CH505 TF gp120.
Assay [2] shares this target. Nature of the assay: competition ELISA; competitor biotinylated CH240 on CH505 TF gp120. (In general: ELISA stands for enzyme-linked immunosorbent assay.)
The target in the next assay is SSB (UniProt P05455). Kind of assay: AtheNA, Ab 6.25 ug/ml.
Chain of SSB (P05455 whole entry): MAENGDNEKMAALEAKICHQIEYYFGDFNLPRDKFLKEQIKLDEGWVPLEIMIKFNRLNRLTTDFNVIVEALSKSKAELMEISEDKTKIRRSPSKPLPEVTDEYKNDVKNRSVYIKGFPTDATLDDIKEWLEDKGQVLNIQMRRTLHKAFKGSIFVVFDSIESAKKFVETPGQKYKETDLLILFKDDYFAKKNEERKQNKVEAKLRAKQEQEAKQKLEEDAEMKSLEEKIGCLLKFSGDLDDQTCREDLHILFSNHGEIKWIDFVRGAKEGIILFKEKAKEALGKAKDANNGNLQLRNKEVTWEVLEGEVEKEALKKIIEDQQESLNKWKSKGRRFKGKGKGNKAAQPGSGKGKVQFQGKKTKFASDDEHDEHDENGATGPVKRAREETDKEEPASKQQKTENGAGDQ
Another assay deals with Centromere B (UniProt P07199). Nature of the assay: AtheNA, Ab 6.25 ug/ml.
Chain of Centromere B (P07199 whole entry): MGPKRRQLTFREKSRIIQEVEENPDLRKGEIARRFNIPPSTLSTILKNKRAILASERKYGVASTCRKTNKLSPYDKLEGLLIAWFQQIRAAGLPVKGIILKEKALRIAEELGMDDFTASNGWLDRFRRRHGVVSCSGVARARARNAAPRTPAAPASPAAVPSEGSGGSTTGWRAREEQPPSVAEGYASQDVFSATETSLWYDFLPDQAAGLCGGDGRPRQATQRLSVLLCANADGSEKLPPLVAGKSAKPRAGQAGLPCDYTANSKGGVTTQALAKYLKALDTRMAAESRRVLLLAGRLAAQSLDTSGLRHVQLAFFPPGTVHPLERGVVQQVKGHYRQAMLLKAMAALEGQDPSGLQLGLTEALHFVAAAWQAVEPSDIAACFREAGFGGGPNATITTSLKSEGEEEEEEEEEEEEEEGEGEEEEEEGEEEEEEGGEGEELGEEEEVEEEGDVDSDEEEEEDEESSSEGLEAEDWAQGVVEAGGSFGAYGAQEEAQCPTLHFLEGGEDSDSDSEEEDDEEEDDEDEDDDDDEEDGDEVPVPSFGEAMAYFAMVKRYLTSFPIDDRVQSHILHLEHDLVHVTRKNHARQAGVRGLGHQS
The target in the next assay is RNP (ribonucleoprotein). Nature of the assay: AtheNA, Ab 6.25 ug/ml.
For another assay, the target named is Scl-70 (UniProt P11387). Kind of assay: AtheNA, Ab 6.25 ug/ml.
Chain of Scl-70 (P11387 whole entry): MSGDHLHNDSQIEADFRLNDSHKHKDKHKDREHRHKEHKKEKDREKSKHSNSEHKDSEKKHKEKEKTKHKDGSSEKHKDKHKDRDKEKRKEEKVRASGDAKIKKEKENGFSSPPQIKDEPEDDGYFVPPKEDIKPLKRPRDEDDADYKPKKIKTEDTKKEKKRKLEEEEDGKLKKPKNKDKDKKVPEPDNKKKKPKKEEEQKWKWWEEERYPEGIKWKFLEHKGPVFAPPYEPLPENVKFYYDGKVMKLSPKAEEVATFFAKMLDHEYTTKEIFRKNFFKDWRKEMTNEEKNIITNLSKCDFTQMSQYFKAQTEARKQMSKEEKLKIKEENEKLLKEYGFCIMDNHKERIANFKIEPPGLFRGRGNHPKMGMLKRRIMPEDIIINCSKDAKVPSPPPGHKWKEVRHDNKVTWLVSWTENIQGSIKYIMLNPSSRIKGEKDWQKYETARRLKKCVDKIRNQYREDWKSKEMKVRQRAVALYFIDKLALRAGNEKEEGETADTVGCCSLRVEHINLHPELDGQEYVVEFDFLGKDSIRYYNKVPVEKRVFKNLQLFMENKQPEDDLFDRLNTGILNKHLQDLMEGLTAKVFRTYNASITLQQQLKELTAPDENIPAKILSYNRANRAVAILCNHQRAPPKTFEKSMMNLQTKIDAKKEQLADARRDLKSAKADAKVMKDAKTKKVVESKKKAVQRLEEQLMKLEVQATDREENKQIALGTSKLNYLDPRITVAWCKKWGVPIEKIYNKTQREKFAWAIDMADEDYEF
Another assay has as its target SSA. Kind of assay: AtheNA, Ab 6.25 ug/ml.
The target of a further assay is Jo-1 (UniProt P12081). Nature of the assay: AtheNA, Ab 6.25 ug/ml.
Chain of Jo-1 (P12081 whole entry): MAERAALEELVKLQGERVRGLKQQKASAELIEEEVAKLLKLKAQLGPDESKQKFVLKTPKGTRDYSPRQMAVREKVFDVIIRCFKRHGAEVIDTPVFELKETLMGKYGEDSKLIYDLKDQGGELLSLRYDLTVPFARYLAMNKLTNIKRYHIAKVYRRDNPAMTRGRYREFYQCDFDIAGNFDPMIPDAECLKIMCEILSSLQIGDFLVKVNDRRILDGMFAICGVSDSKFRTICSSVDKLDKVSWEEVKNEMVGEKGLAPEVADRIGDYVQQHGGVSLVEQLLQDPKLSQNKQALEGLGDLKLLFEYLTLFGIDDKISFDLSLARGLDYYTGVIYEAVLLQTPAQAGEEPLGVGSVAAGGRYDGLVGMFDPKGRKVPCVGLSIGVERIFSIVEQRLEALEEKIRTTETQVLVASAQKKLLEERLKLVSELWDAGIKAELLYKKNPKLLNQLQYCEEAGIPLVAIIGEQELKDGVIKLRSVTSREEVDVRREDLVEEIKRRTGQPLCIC
The next assay deals with Histones. Nature of the assay: AtheNA, Ab 6.25 ug/ml.
A further assay concerns the target Sm (Smith antigen). Kind of assay: AtheNA, Ab 6.25 ug/ml.
The target in assay [3] is CH505w136.B27D8gp120 (HIV-1). Kind of assay: direct-binding ELISA.
Assay [4] concerns the target CH505w136.B3D8gp120/293F (HIV-1). Kind of assay: direct-binding ELISA.
The target in assay [5] is CH505w160.A1D8gp120 (HIV-1). Kind of assay: direct-binding ELISA.
The target in assay [6] is CH505w160.T2D8gp120 (HIV-1). Kind of assay: direct-binding ELISA.
In assay [7] the target is CH505w160.C4D8gp120 (HIV-1). Kind of assay: direct-binding ELISA.
Another assay addresses CH505.M7D8gp120/293F. Kind of assay: direct-binding ELISA.
The target of the next assay is CH505.M10D8gp120. Nature of the assay: direct-binding ELISA.
In assay [8] the target is CH505w160.T4D8gp120/293F (HIV-1). Nature of the assay: direct-binding ELISA.
Assay [9] addresses CH505.TF mutant gp120 M6 (HIV-1). Nature of the assay: direct-binding ELISA.
The target of assay [10] is CH505.TF mutant gp120 M8 (HIV-1). Kind of assay: direct-binding ELISA.

Take CH106 (antibody): the IC50 in [1] is 4.3 µg/mL; in assay [2], 2.3 µg/mL. The AtheNA signal (relative luminescence units) was 6 in the assay with SSB; 1 in the assay with Centromere B; 1 with RNP (ribonucleoprotein); 2 in the assay with Scl-70; 10 in the assay with SSA; 4 in the assay with Jo-1. In addition, the AtheNA signal (relative luminescence units) with Histones came out at 2; with Sm (Smith antigen), 5. Further, the LogAUC in assay [3] was determined as 11.2; in [4], 12.6; in [5], 7.6; in assay [6] it was 6.16; in assay [7], 6.8; in the assay with CH505.M7D8gp120/293F, 11. Besides, the LogAUC with CH505.M10D8gp120 came to 11.8; in [8], 12.3; in assay [9], 12.6; in assay [10], 10.2.

In general, IC50 refers to the point on the concentration scale where inhibition reaches its midpoint. Lower therefore signals greater potency.
